Assay results published in EP0769025B1.

Columns and labels:
[1] = target: monoclonal antibody AF-28; test: competition ELISA, competitor against plate-coated 32-mer for AF-28
[2] = target: monoclonal antibody AF-28; test: competition ELISA, 32-mer as both coating (25 pmoles/ml, Figure 6b) and standard antigen

| times less competitive than the 32-mer [1] [times] | IC50 [2] [nM] | Binder |
| --- | --- | --- |
| 230 |  | FGVGGEEDI [… 9-mer] |
|  | 16 | FFGVGGEEDITVQTVTWPDMELPLPRNITEGE [… (FFGVG...EGE 32-mer) synthetic peptide] |
